From US7862994

Molecular target: human CD4 on the surface of cells (HeLa-CD4+, C8166, PM1, primary human CD4+ T lymphocytes) (human) (UniProt P01730)
Test: cell-based or functional assay

Substance “HIV-1LAI gp120/gp41 expressed on HeLa cells (HeLa-envLAI+) (from UniProt P03377 33-861; P03377 33-861)” has a % RET, fusion of HeLa-envLAI+ with C8166 cells, no inhibitor of 13 % RET and a % RET, fusion of HeLa-envLAI+ with HeLa-CD4+ cells, no inhibitor of 7.3 % RET.

“murine MAb OKT4a (anti-CD4 monoclonal antibody, Ortho Diagnostic Systems)” showed a % Inhibition of RET, fusion of HeLa-envJR-FL with LW5 primary CD4+ T cells, OKT4A at 3 ug/ml of 100%, a % Inhibition of RET, fusion of HeLa-envLAI with LW5 primary CD4+ T cells, OKT4A at 3 ug/ml of 100% and a % RET, fusion of HeLa-envJR-FL+ with PM1 cells in the presence of OKT4A (0.3 µg/ml) of 0.7 % RET. The % RET, fusion of HeLa-envLAI+ with C8166 cells in the presence of OKT4A (0.3 µg/ml) was 0.6 % RET, the % RET, fusion of HeLa-envLAI+ with HeLa-CD4+ cells in the presence of OKT4A (0.3 µg/ml) was 0.4 % RET and the % inhibition of RET at 0.2 µg/ml, HeLa-env+ + HeLa-CD4+ cells, cuvette method was 65%.

“OKT4 (mouse monoclonal antibody that binds CD4, Ortho Diagnostic Systems)” showed a % inhibition of RET at 0.2 µg/ml, HeLa-env+ + HeLa-CD4+ cells, cuvette method of 0% and a % inhibition of RET at 2.0 µg/ml, HeLa-env+ + HeLa-CD4+ cells, cuvette method of 0%.

Work on “HIV-1JR-FL gp120/gp41 expressed on HeLa cells (HeLa-envJR-FL+)” yielded a % RET, fusion of HeLa-envJR-FL+ with PM1 cells, no inhibitor of 7.5 % RET.
